Experimental data: US20180094059A1

Biological target: TRAIL receptors (TRAILR) on tumor cells
Assay: flow cytometry, Colo205 cells

Chain of scTRAIL3-… (P50591 other isoform, or with tags, fused parts or gaps): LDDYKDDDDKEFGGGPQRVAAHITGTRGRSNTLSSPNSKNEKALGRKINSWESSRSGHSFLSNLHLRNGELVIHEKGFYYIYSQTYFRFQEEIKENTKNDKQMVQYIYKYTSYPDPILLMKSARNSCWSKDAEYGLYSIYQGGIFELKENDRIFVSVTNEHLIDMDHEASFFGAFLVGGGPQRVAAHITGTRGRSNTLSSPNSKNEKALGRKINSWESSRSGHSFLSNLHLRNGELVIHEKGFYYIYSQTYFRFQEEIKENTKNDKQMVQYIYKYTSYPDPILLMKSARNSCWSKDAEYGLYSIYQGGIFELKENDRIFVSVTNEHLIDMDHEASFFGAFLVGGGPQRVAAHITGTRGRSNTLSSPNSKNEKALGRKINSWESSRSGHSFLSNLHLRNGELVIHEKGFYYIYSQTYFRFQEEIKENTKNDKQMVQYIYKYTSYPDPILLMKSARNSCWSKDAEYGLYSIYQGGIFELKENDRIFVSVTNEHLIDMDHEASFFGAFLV

EC50: 5.67 nM
Substance: scTRAIL3-… (from UniProt P50591 118-281) (ligand)
